Experiments:
[1] = target: Vibrio cholerae HigB2 toxin (Vibrio cholerae, UniProt Q9KMA6); test: crystal structure
[2] = target: the molecule itself; test: SAXS
[3] = target: T1, Vibrio cholerae HigB2 toxin (Vibrio cholerae, UniProt Q9KMA6); test: ITC
T1 sequence: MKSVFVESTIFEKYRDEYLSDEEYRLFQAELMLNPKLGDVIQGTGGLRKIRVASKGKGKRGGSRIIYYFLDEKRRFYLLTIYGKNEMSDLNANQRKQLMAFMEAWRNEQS

[4] = target: the molecule itself; test: crystal structure

B1: nanobody Nb6 (VHH)
VHH: QVQLQESGGGLVQPGGSLRLSCAASGFTFSNYAMRWYRQAPGEEREFVAFISSVGGSTNYADSVKGRFTISRDNGKNTLYLQMNSLKPEDTAVYFCVARLSLISDSWGQGTQVTVSS
[1]
  binding result: binds

B2: Vibrio cholerae HigA2 antitoxin, full length (natural protein)
chain: MSNRDLFAELSSALVEAKQHSEGKLTLKTHHVNDVGELNISPDEIVSIREQFNMSRGVFARLLHTSSRTLENWEQGRSVPNGQAVTLLKLVQRHPETLSHIAEL
[2]
  stoichiometry N: 2
[3]
  dH: -26.6 ± 0.9 kcal/mol

## NRDLFAELSSALVEAKQHSEW [VcHigA2_(3-22) peptide]
[3]
  binding result: binds

B3: C-terminal domain of VcHigA2 (residues 38-104) (domain or fragment)
chain: LNISPDEIVSIREQFNMSRGVFARLLHTSSRTLENWEQGRSVPNGQAVTLLKLVQRHPETLSHIAEL
[4]
  binding result: binds

B4: nanobody Nb2 (VHH)
VHH: QVQLQESGGGLVQPGGSLRLSCAASGFTLDYYAIGWFRQAPGKEREGVSCISSSGGTTNYADSVKGRFTVSRDNAKNTVYLQMNSLKPEDTAVYYCVADFACPLIREYDYWGQGTQVTVSS
[1]
  binding result: binds

Reference: article PMC5416850 (Nucleic Acids Research, 2017)
